Source: IntAct's records for PubMed 23202584

B1: Ubiquitin-like protein ATG12 (Homo sapiens), O94817 (parent)
chain: MAEEPQSVLQLPTSIAAGGEGLTDVSPETTTPEPPSSAAVSPGTEEPAGDTKKKIDILLKAVGDTPIMKTKKWAVERTRTIQGLIDFIKKFLKLVASEQLFIYVNQSFAPSPDQEVGTLYECFGSDGKLVLHYCKSQAWG

Variants of: B1
Settings: with atg3_mouse Atg3, Q9CPX6
Chain of atg3_mouse Atg3, Q9CPX6 (Q9CPX6 whole entry): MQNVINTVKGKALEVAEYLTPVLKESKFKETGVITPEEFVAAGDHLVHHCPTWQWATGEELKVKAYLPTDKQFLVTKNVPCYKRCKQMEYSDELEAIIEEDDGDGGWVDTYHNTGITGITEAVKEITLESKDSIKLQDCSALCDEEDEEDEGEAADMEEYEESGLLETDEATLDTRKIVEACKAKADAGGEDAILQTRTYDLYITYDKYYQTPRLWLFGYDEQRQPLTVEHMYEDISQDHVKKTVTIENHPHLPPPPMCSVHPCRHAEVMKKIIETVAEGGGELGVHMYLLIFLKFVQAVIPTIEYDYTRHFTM

Effect of a mutation on the interaction, disrupting interaction strength:
K72D
W73A
K54D
